Results taken from the supplement of paper PMC12764529.
± gives the half width of the 95% confidence interval.

Key:
[1] = folding stability dG unfold from trypsin proteolysis; higher = more stable
In short: (§1)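 Sequencing followed digestion of designed mini-proteins with trypsin and chymotrypsin, each at 11 concentrations in threefold dilutions together with a no-protease condition. The mini-proteins were under 80 residues, had no cysteine, sat in a PA-tagged cDNA display construct, and were kept only if AlphaFold2 dimer inter-PAE was above 15. From the counts, Bayesian fitting gave K50, and unfolding free energy was derived against a sequence-predicted unfolded-state K50 and a shared folded-state K50, per protease or combined.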

[2] = folding stability dG unfold from chymotrypsin proteolysis; higher = more stable
In short: as §1

[3] = folding stability dG unfold (combined trypsin and chymotrypsin); higher = more stable
In short: as §1

Sequence	folding stability dG unfold [1] [kcal/mol]	folding stability dG unfold [2] [kcal/mol]	folding stability dG unfold [3] [kcal/mol]
SAGYEWVRELAKKKGFKDIKIEDVQPQRPPDGMEYMHVRIEVQHPGKKREVDIWMRPDNIEEALEQALKSAG [r5_549_TrROS]	0.402 ± 0.096	0.993 ± 0.08	0.766 ± 0.11
SAHITISIEVPLPNLKGQTPEEAREVAKDKAREIAKMFNPEFGIKVKEVEVEPHPDEGWLKVDITFEPKSAG [r14_310_TrROS]	0.998 ± 0.058	0.596 ± 0.05	0.824 ± 0.2
SAHRIMIMFDSPEQAEEIIRKIAEEMGWKPKNIDVEVHPFPVTRPTPDGKKEEHPMYWVTIEIKLKPKKSAG [r14_773_TrROS]	1.94 ± 0.066	2.84 ± 0.096	2.37 ± 0.27
SAHTISIRIPPNMKPITAEELKKEPGYEVKDINVYPNEDGNMYFTIEVEPGMPPKKMDEILERIRDRMGSAG [r14_421_TrROS]	0.764 ± 0.034	0.911 ± 0.038	0.862 ± 0.059
SAIKIEEIKDVNPENKNIRIKIEMPGGPHEIPIPAKSEMDVEEALDLILDWFERHFPPGHKMRIEEIEISAG [r14_422_TrROS]	0.886 ± 0.091	-0.0828 ± 0.13	0.341 ± 0.1
SAIPINLPPGDKVKITFRNPDGSRMEIEFDPENGKWKVKMRPNDGKKQEQTIPAGNLDDLPPGVYSIEPVSA [r9_1110_TrROS]	1.08 ± 0.16	1.78 ± 0.27	1.33 ± 0.26
SAIVLVVADDSPEEAVERARRFAATLRERLVREGYPDADVPIVVEVRAVPPPVPVPVRLPDGDEVVPAPSAG [r14_475_TrMRF]	0.647 ± 0.1	1.7 ± 0.044	1.32 ± 0.064
SAKAELEIKFPGWKVTVEIEDVDPKNDMVKLKAFFRNGWVFTQTVNPDDGKIEIPIIPVKPDPDGKWKFSAG [r14_466_TrROS]	1.21 ± 0.032	1.38 ± 0.096	1.35 ± 0.091
SAKEEYYKVRIYFPETNEVVEIEAKSEEEALEALKKLLNEPNIVKIEIEKVEVEEEPEEKEYSEEELKSSAG [r14_747_TrROS_Hall]	2.02 ± 0.04	2.39 ± 0.046	2.32 ± 0.12
SAKEIASGTFLLDNGATLTVTSIKYDPETGKVSIPVELTVYVPKIDPNDPNKPTIEPFTFKITFTFKVDSAG [r14_888_TrMRF]	2.51 ± 0.073	3.78 ± 0.026	3.34 ± 0.087
SAKILEIKPLPDGTVIIKIPVDAPEDVDPKEVKILVKSEEGVKEAEILEDGTIDIVVENVKDVKIEIFVESA [r9_722_TrMRF]	0.305 ± 0.061	0.382 ± 0.074	0.359 ± 0.1
SAKITIFFPFDAVKEILDLLKENGVEVNIERHPGNPWYSATITRPDPNGKELPIEIMMFPDHGYVQITLSAG [r14_169_TrROS]	2.65 ± 0.14	2.62 ± 0.04	2.57 ± 0.13
SAKIVVKLPEKPKVAVIEFPPGMTKEEILKALEEVPGLSEEEREALKKKIEELEALAKNPELLKKLEEESAG [r14_732_TrROS_Hall]	-0.378 ± 0.087	1.19 ± 0.051	0.797 ± 0.12
SAKKAEEIAEKVEKTIKEAAKEKGYDVNIKVKATKGKDGKVTVYIDFDSPENAKEFIEKLPKSVNVVIASAG [r14_491_TrMRF]	1.3 ± 0.052	1.42 ± 0.059	1.41 ± 0.11
SAKKKYIAKVLIEKGDKIIEIEIPGDATVKNPDGKEYTFKVESPEKLKEAIKKLFPEKYPAKILEVKEESAG [r14_41_TrMRF]	1.18 ± 0.058	1.73 ± 0.087	1.54 ± 0.18
SAKKPLYLIIVKIGPDGKEIVIVAESEEEARKAAEEELRKLFPDLEIKEIKIIPLEKVKTKEEALELLKSAG [r14_900_TrROS_Hall]	2.16 ± 0.066	1.92 ± 0.07	1.89 ± 0.16
SAKKTITITKITLTLFNKDGKPVATAEITSIEITYDPKTNTFTITATVKVTLPNGKTFTFKLTITLPVKSAG [r14_609_TrROS_Hall]	3.91 ± 0.18	4.87 ± 0.21	4.55 ± 0.41
SAKKTITLTITNEDGSTFTITITDNKITITNKDNGLVAEAEILPDGTIKLKIYNKNGELIAEITLKIKDSAG [r14_213_TrROS_Hall]	3.18 ± 0.32	4.32 ± 0.049	4.09 ± 0.26
SAKKVEVKKIKVEVTFYDKNGKKVKKKKATITVVKVDGKYYVTIYDENTGKKYVFEFPSLEEAKKALKKSAG [r14_508_TrROS_Hall]	1.91 ± 0.11	3.09 ± 0.044	2.77 ± 0.33
SAKKVIIEVKSLEELLKAAKEAAKKGEKVEVLVKLKDGYYVKITMEFDKKTKKIKIKKIEIKPIKKEDLSAG [r14_455_TrROS_Hall]	2.51 ± 0.12	2.75 ± 0.21	2.46 ± 0.38
SAKKVPKIEKIEFIPGPNLVKITIPVPEKDKLLVTIDLKDKKLEFELKKNTSFYFSAKYADIKVSVEKKSAG [r14_96_TrMRF]	2.28 ± 0.16	3.11 ± 0.14	3 ± 0.2

Sequence	folding stability dG unfold [1] [kcal/mol]	folding stability dG unfold [2] [kcal/mol]	folding stability dG unfold [3] [kcal/mol]
SAKLAEEIAKKILPEVKEVKILKIEVKKDPKSKFKVIKIEMLVKMPKGEKKIKIEIKPGKPKIKIIPLDSAG [r14_397_TrMRF]	2.16 ± 0.09	2.85 ± 0.1	2.67 ± 0.22
SAKLEIELNGYKIVSVEVNEDGTVKMKIEVDGKLYELTLKVKLPPPKVEVKEEKKEVKEVKFVKEGEEKSAG [r14_218_TrROS_Hall]	1.18 ± 0.096	2.15 ± 0.094	2.05 ± 0.3
SAKMTAEEIAAALAEELGLEVVEVVEVDEETGKITIRVDGKLIEITVVEEDGELKIEVRVVDEETGEELSAG [r14_270_TrROS_Hall]	1.84 ± 0.087	0.852 ± 0.073	1.36 ± 0.18
SAKMVVLKAYFKGDGDEIKEIADAIDFPYTIEKIPDYPDYYIATFVFPTEEKAPEWEKALKEKGYIVEGSAG [r14_745_TrMRF]	1.88 ± 0.04	2.48 ± 0.037	2.25 ± 0.049
SAKPPKVEVKTVRVTIKVRNKDGSTYTITKEVTEVRVEVDGKTVTVTSIKITIELPPGITEVEIKIEKVSAG [r14_892_TrROS_Hall]	3.61 ± 0.49	4.84 ± 0.29	4.47 ± 0.47
SAKTLTIEELAKKLKEELEKKTGKKLSKEELKKKALELAKKLAEEKGLKIKSVKVEEKDGKLTVTVEVESAG [r14_147_TrROS_Hall]	3.2 ± 0.16	3.26 ± 0.082	2.84 ± 0.15
SAKTVKVRIELTLTVVKVTLDPETGELKVEEVKTLTLEIELEMSEEDLEKARRALEEELKRLLEELGIPSAG [r14_308_TrROS_Hall]	3.64 ± 0.29	3.78 ± 0.33	3.9 ± 0.37
SAKTVTLKVTLEIEINGVRVKVEATLTLELDENGELKLTLELKIEIEPAPPPKEVKLTEEEKKKLEELKSAG [r14_442_TrROS_Hall]	2.44 ± 0.23	3.79 ± 0.2	3.25 ± 0.69
SAKVYRTKDGKEVKVEKKKVKVKTIEIEIEIEMPKELEEKVKKLAEELAKKLAEELNLPPGAKIKITVRSAG [r14_453_TrROS_Hall]	2.54 ± 0.06	2.04 ± 0.051	2.34 ± 0.17
SAKYKIIEAKPGKNVVTITVEYTLPNGEKLTKPIPINAINPVIVEVSEDSITIYDPNNGKLITFPAEKLSAG [r14_947_TrMRF]	2.1 ± 0.12	2.87 ± 0.037	2.49 ± 0.12
SALDVPPDARVYVFRLRYPVPPGVSAADVAARVRAELSERFGPDVEIVVTVTPDPETGEVLVEAVVVEPVSA [r9_657_TrMRF]	3.57 ± 0.12	4.05 ± 0.058	3.82 ± 0.16
SALEELLKELAEKLGYPYTVLEIKKEENTYKMVIKLTKEGTPVIVDVEIEFPSSDPNVYKVKIKKIEEPSAG [r14_387_JUSTAS]	2.8 ± 0.087	3.603 ± 0.027	3.49 ± 0.072
SALEIEIEQDEDGNMRISVYLPGWKPIEEQPVPPGDGMKTFIIKLPDRVLMITFTNGGIEPNPVPLNDISAG [r14_403_TrROS]	2.44 ± 0.17	2.69 ± 0.092	2.51 ± 0.23
SALKIEISFPGNAGEVRERVLGREDGSYEVEFLVTFPTPGDGIPSVLRVTYRVDPVSGKIEPRLEPVDASAG [r14_590_TrMRF]	1.48 ± 0.025	3.24 ± 0.036	2.65 ± 0.052
SALLVAPDGTVVKPETIKTTVETFTTYFLPPGKPVTRKGVKEYTVTVTTTTYTTPNPTLTVETTVTTVGSAG [r14_291_JUSTAS]	-0.0458 ± 0.11	0.667 ± 0.2	0.392 ± 0.2
SALPLPSSAKVELEWELVGVDPGSKGAKVYYRRTLKVTFPTGSLTVTYLVEYDPETGTFSWSITSVSPESAG [r14_293_TrMRF]	4.1 ± 0.19	5.65 ± 0.095	5.38 ± 0.21
SALPPGTTVTYTFYDPATGALVTVTVTTLPDGTVRVTLTVYDPSTGETTTVTFTVDGATLDELLDFIRAGSA [r9_618_TrMRF]	3.77 ± 0.3	5.28 ± 0.18	5.37 ± 0.32
SALRPDIPFDAVEKVVIPARHPLLGGVVEAGVYRLKDSDAVLVVVTFPDGSKLVFLVRPDDVLDVLDAISAG [r14_240_TrMRF]	2.38 ± 0.066	2.969 ± 0.01	2.75 ± 0.045
SAMANITANYYDPETGKVLAKDLPLPNGDEVHVTPNPVTGTVTVEWDGPEEALEVIKAALPPDWKIYPLSAG [r14_252_TrMRF]	0.712 ± 0.035	-0.0765 ± 0.16	0.362 ± 0.18
SAMDFPPGSTATIKVEVKNPDNTKTETYEIEVPVDPETGKAITLEDLKEALEKLGVNPENVKIVDIKVGSAG [r14_93_TrMRF]	3.18 ± 0.22	2.25 ± 0.2	2.72 ± 0.27
